B1: His-SAMD9, recombinant full-length human SAMD9 (natural protein)
chain: MAKQLNLPENTDDWTKEDVNQWLESHKIDQKHREILTEQDVNGAVLKWLKKEHLVDMGITHGPAIQIEELFKELRKTAIEDSIQTSKMGKPSKNAPKDQTVSQKERRETSKQKQKGKENPDMANPSAMSTTAKGSKSLKVELIEDKIDYTKERQPSIDLTCVSYPFDEFSNPYRYKLDFSLQPETGPGNLIDPIHEFKAFTNTATATEEDVKMKFSNEVFRFASACMNSRTNGTIHFGVKDKPHGKIVGIKVTNDTKEALINHFNLMINKYFEDHQVQQAKKCIREPRFVEVLLPNSTLSDRFVIEVDIIPQFSECQYDYFQIKMQNYNNKIWEQSKKFSLFVRDGTSSKDITKNKVDFRAFKADFKTLAESRKAAEEKFRAKTNKKEREGPKLVKLLTGNQDLLDNSYYEQYILVTNKCHPDQTKHLDFLKEIKWFAVLEFDPESNINGVVKAYKESRVANLHFPSVYVEQKTTPNETISTLNLYHQPSWIFCNGRLDLDSEKYKPFDPSSWQRERASDVRKLISFLTHEDIMPRGKFLVVFLLLSSVDDPRDPLIETFCAFYQDLKGMENILCICVHPHIFQGWKDLLEARLIKHQDEISSQCISALSLEEINGTILKLKSVTQSSKRLLPSIGLSTVLLKKEEDIMTALEIICENECEGTLLEKDKNKFLEFKASKEEDFYRGGKVSWWNFYFSSESYSSPFVKRDKYERLEAMIQNCADSSKPTSTKIIHLYHHPGCGGTTLAMHILWELRKKFRCAVLKNKTVDFSEIGEQVTSLITYGAMNRQEYVPVLLLVDDFEEQDNVYLLQYSIQTAIAKKYIRYEKPLVIILNCMRSQNPEKSARIPDSIAVIQQLSPKEQRAFELKLKEIKEQHKNFEDFYSFMIMKTNFNKEYIENVVRNILKGQNIFTKEAKLFSFLALLNSYVPDTTISLSQCEKFLGIGNKKAFWGTEKFEDKMGTYSTILIKTEVIECGNYCGVRIIHSLIAEFSLEELKKSYHLNKSQIMLDMLTENLFFDTGMGKSKFLQDMHTLLLTRHRDEHEGETGNWFSPFIEALHKDEGNEAVEAVLLESIHRFNPNAFICQALARHFYIKKKDFGNALNWAKQAKIIEPDNSYISDTLGQVYKSKIRWWIEENGGNGNISVDDLIALLDLAEHASSAFKESQQQSEDREYEVKERLYPKSKRRYDTYNIAGYQGEIEVGLYTIQILQLIPFFDNKNELSKRYMVNFVSGSSDIPGDPNNEYKLALKNYIPYLTKLKFSLKKSFDFFDEYFVLLKPRNNIKQNEEAKTRRKVAGYFKKYVDIFCLLEESQNNTGLGSKFSEPLQVERCRRNLVALKADKFSGLLEYLIKSQEDAISTMKCIVNEYTFLLEQCTVKIQSKEKLNFILANIILSCIQPTSRLVKPVEKLKDQLREVLQPIGLTYQFSEPYFLASLLFWPENQQLDQHSEQMKEYAQALKNSFKGQYKHMHRTKQPIAYFFLGKGKRLERLVHKGKIDQCFKKTPDINSLWQSGDVWKEEKVQELLLRLQGRAENNCLYIEYGINEKITIPITPAFLGQLRSGRSIEKVSFYLGFSIGGPLAYDIEIV
B2: 80-nt ssDNA (ssDNA)
DNA: CGCCTACATACCTCGCTCTGCTAATCCTGTTACCAGTGGCTGCTGCCAGTGGCGATAAGTCGTGTCTTACCGGGTTGGAC
B3: 15-bp dsDNA (dsDNA)
DNA 1: GATAAGGACTCGTAT
DNA 2: ATACGAGTCCTTATC
B4: 20-bp dsDNA (dsDNA)
DNA 1: GATAAGGACTCGTATGTACC
DNA 2: GGTACATACGAGTCCTTATC

Key:
native gel or EMSA = molecular target: the molecule itself; test: native gel or EMSA
His-SAMD9 = His-SAMD9 (Homo sapiens, UniProt Q5K651 1-1589); test: EMSA

Row | Binder | binding result (native gel or EMSA) | binding result (His-SAMD9)
1 | B1 | binds | 
2 | B2 |  | no binding
3 | B3 |  | no binding
4 | B4 |  | no binding
